In assay [1] the target is HA-rat μ opioid receptor (rat) (UniProt P33535).
Assay [2] concerns the target endogenous μ opioid receptor of rat locus coeruleus neurones (rat (endogenous in locus coeruleus neurones)) (UniProt P33535).
Assay [3] concerns the target human μ opioid receptor-Renilla luciferase II (human) (UniProt P35372).
In assay [4] the target is HA-rat μ opioid receptor (rat) (UniProt P33535). This is another data set of the same source.
Assay [5] addresses human μ opioid receptor-Renilla luciferase II (human) (UniProt P35372). The source holds these as a separate data set.

Sequence of UniProt P35372 (P35372 whole entry): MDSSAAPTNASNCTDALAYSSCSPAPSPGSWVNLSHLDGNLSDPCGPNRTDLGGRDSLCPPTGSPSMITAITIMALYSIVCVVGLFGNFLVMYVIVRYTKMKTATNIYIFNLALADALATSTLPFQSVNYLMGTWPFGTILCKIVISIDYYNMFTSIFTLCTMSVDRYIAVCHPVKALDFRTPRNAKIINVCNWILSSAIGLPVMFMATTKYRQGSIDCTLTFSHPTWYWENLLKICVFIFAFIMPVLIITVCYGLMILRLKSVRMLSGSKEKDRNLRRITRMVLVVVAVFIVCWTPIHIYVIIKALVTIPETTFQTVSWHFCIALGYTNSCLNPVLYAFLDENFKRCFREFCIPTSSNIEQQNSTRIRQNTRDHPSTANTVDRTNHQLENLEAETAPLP

As for “DAMGO ([D-Ala^2, N-MePhe^4, Gly-ol]-enkephalin) (peptide)”, in assay [1], the G protein activation BRET (Gαi1-RlucII / GFP10-Gγ2) in HEK293T cells, log EC50 (M) was -6.48 log EC50 (M) and the cell surface receptor loss (ELISA of HA-tagged receptor, 1 h agonist) in HEK293T cells, log EC50 (M) is -6.14 log EC50 (M). In assay [2], the opioid-evoked GIRK current in rat locus coeruleus neurones (whole-cell patch clamp), log EC50 (M) is -7.29 log EC50 (M). Besides, in assay [3], the β-arrestin 2 recruitment BRET (μ opioid receptor-RlucII / β-arrestin 2-GFP10) in HEK293T cells, log EC50 (M) is -5.7 log EC50 (M). The KA (equilibrium dissociation constant) by Furchgott's method from G protein activation BRET curves with and without β-FNA, whole cells in assay [4] came to 5.6 µM. Besides, the KA (equilibrium dissociation constant) by Furchgott's method from β-arrestin 2 recruitment BRET curves with and without β-FNA, whole cells in assay [5] was found to be 1580 nM.

Values taken from article PMC10952505.
